Results reported in US10100120B2, “Antibody which specifically binds to human CRTH2” (KYOWA HAKKO KIRIN CO., LTD, priority 2015, dated 2018).

Experiments:
[1] = system: human eosinophils; assay: Antagonist activity using shape change of human eosinophils as index (Example 19); assay type: cell-based; conditions: antibody 10 μg/mL or small molecule 10 μM, DKPGD2 0.1-1000 nM; FIG. 16
Description: Eosinophils were separated from human peripheral blood in the same manner as in Example 11. The isolated human eosinophils were suspended with Dulbecco's phosphate buffered saline (hereinafter, referred to as D-PBS (−)) (NACALAI TESQUE, Inc.) and performed a reaction in a 5% CO2 incubator at 37° C. for 1 hour and 30 minutes. Thereafter, the cells were seeded in a 96-well plate at 2×10^5 cells/well using 10% FBS-containing RPMI1640. Next, an isotype control antibody [CELL LAB Rat IgG2b Isotype Control (Beckman Coulter Inc.)] at a final concentration of 10 μg/mL or Lym2 antibody; or small molecular CRTH2 antagonist 00000459 (Cayman Chemical) at a final concentration of 10 μM as a positive control, was added thereto to cause a reaction in a 5% CO2 incubator at 37° C. for 30 minutes.
Next, DKPGD2 (Cayman Chemical) at each of final concentrations of 0.1, 1, 10, 100, and 1000 nM was added thereto to cause a reaction in a 5% CO2 incubator at 37° C. for 60 minutes. After the reaction, the cells were washed twice with ice-cold PBS, Fixation Buffer (BD Biosciences) was added at 200 μL/well, and the resultant was suspended well and allowed to stand at 4° C. for 30 minutes. After that, the cells were washed twice with SM, and shape change of eosinophils was analyzed by flow cytometry (BD Biosciences, FACS CantoII).
The shape change of eosinophils was analyzed based on an increase in Forward Scatter Light (FSC) plot which is an index of the cell size, the cell surface area, or the cell diameter in the analysis using flow cytometry and the percentage (%) of eosinophils detected in the gate of high FSC was calculated based on the FSC of DKPGD2-untreated eosinophils.

[2] = system: differentiation-induced Th1 cells; assay: Reactivity against differentiation-induced Th1 cells; assay type: binding, human; conditions: antibody 10 μg/mL, 4° C., 1 hour; FIG. 15
Description: Healthy person-derived frozen PBMC (Allcells, LLC.) was washed once with 20 mL of PBMC culture medium containing 50 μL of DNase I recombinant, RNase-free (Roche Diagnostics K.K.), suspended with 20 mL of PBMC culture medium containing 50 μL of DNase I recombinant, RNase-free, and allowed to stand in a 5% CO2 incubator at 37° C. for 2 hours.
Thereafter, the cells were washed twice with the MACS buffer described in Example 11 and naive CD4-positive T-cells were isolated by a negative selection method using Naive CD4^+ T Cell Isolation Kit II human (Miltenyi Biotec) according to the attached instructions. The negative selection was performed twice in order to improve purity of the naive CD4-positive T-cells.
According to the method described in J Immunol, 2002. 169(5): p. […]
After the cells were washed, 10 μg/mL of CELL LAB Mouse Anti-Rat Kappa (kappa light chain specific) FITC (Beckman Coulter Inc.) diluted with SM was added to wells to which Lym2 antibody or BM16 was added, 10 μg/mL of CELL LAB Goat Anti-Mouse IgG (γ chain specific) Fluorescein (FITC) Conjugate (Beckman Coulter Inc.) diluted with SM was added to wells to which 301108 was added at a final concentration of 10 μg/mL to cause a reaction at 4° C. for 1 hour. After the cells were washed again, the cells were suspended with SM, and the fluorescent intensity was analyzed by flow cytometry (BD Biosciences, FACS CantoII).

B1: Lym2 antibody: rat anti-human CRTH2 monoclonal antibody from hybridoma Lym2, rat IgG2b; VH SEQ ID NO: 17, VL SEQ ID NO: 19 (antibody, listed as Rattus norvegicus, V domains shown)
VH: EVQLVESGGGLVQPGRSMKLSCAASGFTFSNYYMAWVRQAPKKGLEWVATISYDGSSTYYRDSVKGRFTISRDNAKSTLYLQMDSLRSEDTATYYCARHRGYYYSGAGYFDYWGQGVMVTVSS
VL: DVVLTQTPVSLSVTLGDQASISCRSSQSLEYSDGYTYLEWYLQKPGQSPQVLIYGVSNRFSGVPDRFIGSGSGTDFTLKISRVEPEDLGVYYCFQATHDPLTFGSGTKLEIK
inhibition of DKPGD2-dependent shape change of eosinophils (antagonist activity) [1]: didn't inhibit | reactivity against the differentiation-induced Th1 [2]: did not exhibit reactivity
